# Reference: US6818617B1 (Temple University- Of The Commonwealth System of Higher …, priority 1997, dated 2004)
# Where two headings read alike, the source gives them in different places. Where a SMILES comes first, the peptide text is derived from it. Bridges are numbered along the chain shown (N, C = ends). Where no end group is shown, it is not given here.
# How the values were obtained:
# αIIbβ3 [1] = biological target: T1, αIIbβ3 (Homo sapiens, UniProt P05106+P08514); parameters: endogenous in cells; host or cells: platelets in platelet rich plasma; conditions: after reduction and ethylpyridylethylation; Calvete et al.; cited from earlier work
# α4β7 = biological target: T2, α4β7 (Homo sapiens, UniProt P13612+P26010); assay: RPMI 8866 cell adhesion to MadCAM-1; format: cell-based; conditions: RPMI 8866 cells, α4β7, ligand MadCAM-1
# T2 construct: endogenous in cells; host or cells: JY cells (A11); RPMI 8866 cells (A12)
# Procedure: (§1) Adhesion of cultured cells labeled with 5-chloromethylfluorescein diacetate (CMFDA) was performed as described earlier (Marcinkiewicz et al., Blood 90:1565-1575 (1997)). […] Wells were blocked by 1% BSA in HBSS buffer. Cells were labeled with fluorescein by incubation with 12.5 AM CMFDA in HBSS buffer containing 1% BSA at 37° C. by 15 min. Unbound label was removed by washing with the same buffer. Labeled cells (1×10^5 per sample) were added to the well in the presence or absence of inhibitors and incubated at 37° C. for 30 min. Unbound cells were removed by aspiration, the wells were washed and bound cells were lysed by adding 0.5% Triton X-100. In parallel the standard curve was prepared in the same plate from known concentrations of labelled cells. The plate was read using a Cytofluor 2350 fluorescence plate reader (Millipore, Bedford, Mass.) at 485 nm EX(excitation) filter and 530 nm (emmision) filter.
# (§2) The effect of each peptide on cell adhesion was determined as described above. […] Cells that attached to the plates were lysed with detergent, and fluorescence intensity was measured. Percent inhibition was measured at each concentration and IC50 was determined.
# α4β1 [2] = biological target: T3, α4β1 (Homo sapiens, UniProt P05556+P13612); assay: Jurkat cell adhesion to immobilized VCAM-1; format: cell-based
# T3 construct: host or cells: Jurkat
# Procedure: as §1
# The cell adhesion assay (as described in Example 1) was used to study the inhibitory effect of the eluted fractions on Jurkat cell adhesion to immobilized VCAM-1 and on K562 cell adhesion to fibronectin. Recombinant VCAM-1 (0.5 μg/well) or fibronectin (0.5 μg/well) were immobilized overnight at 4° C. on a 96-well plate (Falcon) in PBS buffer. After blocking, the CMFDA-labeled cells were added to each well in the presence of 5 μg per sample of protein from selected fractions.
# Recombinant human VCAM-1 (0.5 μg/well) was immobilized in the wells of an ELISA plate overnight in PBS buffer. The plate was blocked using HBSS buffer containing 1% BSA. […] The plate was incubated for 30 minutes at 37° C. Unbound cells were removed by aspiration and the wells were washed with HBSS buffer.
# as §2
# αIIbβ3, αvβ3, α5β1 = assay: Panel of RGD-selective integrin assays (platelet aggregation and cell adhesion); format: cell-based; conditions: range over the panel (Table 1); read-out: concentrations of potent inhibition of αIIbβ3-dependent platelet aggregation and αIIbβ3-, αvβ3-, α5β1-dependent cell adhesion
# Procedure: as §2
# (§3) Blood from a healthy donor was collected into a syringe containing sodium citrate as an anticoagulant. The anticoagulated blood was centrifuged at 400 g for 17 minutes, and platelet rich plasma (PRP) was removed by aspiration.
# αIIbβ3 [3] = biological target: T1, αIIbβ3; assay: ADP-induced platelet aggregation in platelet rich plasma (ADP PA); format: cell-based; parameters: endogenous in cells; host or cells: platelets in platelet rich plasma; conditions: Platelets, αIIbβ3, ligand Fg, 30 μM ADP
# Procedure: as §3
# αIIbβ3 [4] = biological target: T1, αIIbβ3; assay: A5 (CHOαIIbβ3+) cell adhesion to immobilized fibrinogen; format: cell-based; conditions: A5 (CHOαIIbβ3+) cells, ligand Fg
# Procedure: as §1, §2
# α5β1 = biological target: T4, α5β1 (Homo sapiens, UniProt P05556+P08648); assay: K562 cell adhesion to immobilized fibronectin; format: cell-based; conditions: 5 μg per sample of protein from fraction
# T4 construct: host or cells: K562
# Procedure: as §1
# α4β1 [5] = biological target: T5, α4β1 (UniProt G3HZ55+P13612); assay: A2 (CHOα4+) cell adhesion to immobilized VCAM-1; format: cell-based, human; parameters: expressed in transfected cells; host or cells: CHO (A2 cells, α4+ α5+), gift of Dr. Y. Takada; conditions: A2 (CHOα4+) cells, ligand VCAM-1
# Procedure: as §1, §2
# α4β1 [6] = biological target: T5, α4β1; assay: α4B2 (CHOα4+/α5−) cell adhesion to immobilized VCAM-1; format: cell-based, human; parameters: expressed in transfected cells; host or cells: B2 CHO cells (α5-deficient), gift of Dr. Y. Takada; conditions: α4B2 (CHOα4+/α5−) cells, ligand VCAM-1
# Procedure: as §1
# Chinese hamster ovary cells transfected with human α4 integrin were provided by Dr. Y. Takada (Scripps Research Institute, La Jolla, Calif.). […] The bound cells were lysed with 0.5% Triton X-100, and fluorescence was measured.
# as §2
# αvβ3 = biological target: T6, αvβ3 (Homo sapiens, UniProt P05106+P06756); assay: VNRC3 (CHOαvβ3+) cell adhesion to immobilized vitronectin; format: cell-based; conditions: VNRC3 (CHOαvβ3+) cells, ligand Vn
# T6 construct: expressed in transfected cells; host or cells: CHO (VNRC3 cells), gift of Dr. M. Ginsberg
# Procedure: as §1, §2
# [7] = tested on: lymphocyte infiltration of pancreatic Langerhans islets; assay: Lymphocyte infiltration of Langerhans islets in Non Obese Diabetic (NOD) mice; format: in vivo, mouse; conditions: for effect on lymphocyte infiltration in pancreatic islets of NOD mice (in words): i.p. three times per week, nine weeks
# Procedure: Female NOD mice from […] of age were purchased from Jackson Laboratory (Bar Harbor, Me.).
# After nine weeks of treatment the animals were sacrificed by exposure to CO2. The pancreas was removed, frozen, and stored at −70° C. until the histological analysis. For the histological analysis, five μm sections of frozen tissue were fixed with acetone. For detection of infiltrating lymphocytes, the sections were stained with hematoxylin/eosin, and observed by light microscopy.
# α6β1 = biological target: T7, α6β1 (Homo sapiens, UniProt P05556+P23229); assay: K562 (α6+) cell adhesion to laminin; format: cell-based
# T7 construct: expressed in transfected cells; host or cells: K562 transfected with α6
# Procedure: as §1, §2
# α4β1 and α4β7 integrins = assay: Panel of α4 integrin cell adhesion assays; format: cell-based; conditions: at 10 μM
# Procedure: as §1, §2
# MV3 cells = conditions: immune deficient mice; cited from earlier work
# Jurkat cells = assay: Adhesion of Jurkat cells to immobilized EC3; format: cell-based; conditions: 1 mM
# Procedure: as §1
# The adhesion study was performed using CMFDA-labeled Jurkat cells in the absence or presence 1 mM GRGDSP or GRGESP, or 10 μg/ml HP 2/1. Competition between EC3 and HP2/1 was also confirmed in cell suspension using FACS analysis. […] The experiment was performed using flow cytometry. […] The samples were fixed by addition of 1% paraformaldehyde before measurement of fluorescence intensity.
# α4β1 (VLA-4) integrin = conditions: rabbit cardiac allografts; cited from earlier work
# T7 sequence (P23229 24-938 limits assumed): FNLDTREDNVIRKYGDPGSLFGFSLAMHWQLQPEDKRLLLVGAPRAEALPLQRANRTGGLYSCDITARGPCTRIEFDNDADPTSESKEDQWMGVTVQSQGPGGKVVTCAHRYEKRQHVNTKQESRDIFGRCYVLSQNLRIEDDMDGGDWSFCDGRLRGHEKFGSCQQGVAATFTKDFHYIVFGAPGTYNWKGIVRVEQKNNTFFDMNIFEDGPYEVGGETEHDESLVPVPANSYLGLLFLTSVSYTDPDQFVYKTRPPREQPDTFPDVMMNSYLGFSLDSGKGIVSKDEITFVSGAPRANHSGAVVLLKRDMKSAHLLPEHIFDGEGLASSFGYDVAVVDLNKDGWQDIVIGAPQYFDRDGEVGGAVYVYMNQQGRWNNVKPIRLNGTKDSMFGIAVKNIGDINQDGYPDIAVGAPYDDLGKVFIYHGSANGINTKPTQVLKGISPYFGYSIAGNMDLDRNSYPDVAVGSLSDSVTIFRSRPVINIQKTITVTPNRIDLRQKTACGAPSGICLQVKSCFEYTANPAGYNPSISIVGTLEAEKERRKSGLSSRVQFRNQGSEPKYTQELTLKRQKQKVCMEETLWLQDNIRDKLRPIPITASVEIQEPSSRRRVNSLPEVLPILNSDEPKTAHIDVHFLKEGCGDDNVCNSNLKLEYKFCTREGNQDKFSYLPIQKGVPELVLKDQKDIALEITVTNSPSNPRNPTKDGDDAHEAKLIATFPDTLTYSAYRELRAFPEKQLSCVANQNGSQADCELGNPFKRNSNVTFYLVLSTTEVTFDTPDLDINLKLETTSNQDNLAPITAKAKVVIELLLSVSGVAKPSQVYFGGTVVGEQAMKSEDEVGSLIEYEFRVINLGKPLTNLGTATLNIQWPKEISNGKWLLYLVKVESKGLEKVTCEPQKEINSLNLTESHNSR
# T7 sequence (P23229 942-1130 partner limits assumed): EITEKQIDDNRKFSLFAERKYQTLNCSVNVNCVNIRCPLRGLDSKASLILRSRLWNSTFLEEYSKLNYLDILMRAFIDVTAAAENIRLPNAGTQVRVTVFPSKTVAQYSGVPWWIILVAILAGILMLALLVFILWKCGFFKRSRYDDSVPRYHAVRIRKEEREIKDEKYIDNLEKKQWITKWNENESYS
# T7 sequence (P05556 21-798): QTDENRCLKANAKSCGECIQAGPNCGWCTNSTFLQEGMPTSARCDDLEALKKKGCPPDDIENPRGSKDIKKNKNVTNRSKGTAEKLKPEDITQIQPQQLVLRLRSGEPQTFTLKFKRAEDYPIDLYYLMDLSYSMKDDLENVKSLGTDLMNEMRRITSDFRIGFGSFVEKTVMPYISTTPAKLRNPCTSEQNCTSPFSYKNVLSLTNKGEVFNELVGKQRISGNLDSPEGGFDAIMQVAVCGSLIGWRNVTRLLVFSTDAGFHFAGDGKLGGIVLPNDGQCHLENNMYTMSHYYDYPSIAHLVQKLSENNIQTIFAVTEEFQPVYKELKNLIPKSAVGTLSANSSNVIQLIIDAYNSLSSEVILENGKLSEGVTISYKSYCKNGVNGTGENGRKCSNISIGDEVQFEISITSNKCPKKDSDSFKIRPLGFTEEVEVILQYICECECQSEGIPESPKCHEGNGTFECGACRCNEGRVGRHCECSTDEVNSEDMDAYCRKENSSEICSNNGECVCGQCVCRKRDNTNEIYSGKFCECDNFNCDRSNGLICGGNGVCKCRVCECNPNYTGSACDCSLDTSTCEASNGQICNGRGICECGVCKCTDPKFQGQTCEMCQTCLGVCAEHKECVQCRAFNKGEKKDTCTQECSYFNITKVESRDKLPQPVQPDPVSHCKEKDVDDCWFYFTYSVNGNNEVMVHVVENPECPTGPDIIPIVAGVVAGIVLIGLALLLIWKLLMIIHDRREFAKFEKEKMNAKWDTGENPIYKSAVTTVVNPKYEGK
# T6 sequence (P06756 31-889 limits assumed): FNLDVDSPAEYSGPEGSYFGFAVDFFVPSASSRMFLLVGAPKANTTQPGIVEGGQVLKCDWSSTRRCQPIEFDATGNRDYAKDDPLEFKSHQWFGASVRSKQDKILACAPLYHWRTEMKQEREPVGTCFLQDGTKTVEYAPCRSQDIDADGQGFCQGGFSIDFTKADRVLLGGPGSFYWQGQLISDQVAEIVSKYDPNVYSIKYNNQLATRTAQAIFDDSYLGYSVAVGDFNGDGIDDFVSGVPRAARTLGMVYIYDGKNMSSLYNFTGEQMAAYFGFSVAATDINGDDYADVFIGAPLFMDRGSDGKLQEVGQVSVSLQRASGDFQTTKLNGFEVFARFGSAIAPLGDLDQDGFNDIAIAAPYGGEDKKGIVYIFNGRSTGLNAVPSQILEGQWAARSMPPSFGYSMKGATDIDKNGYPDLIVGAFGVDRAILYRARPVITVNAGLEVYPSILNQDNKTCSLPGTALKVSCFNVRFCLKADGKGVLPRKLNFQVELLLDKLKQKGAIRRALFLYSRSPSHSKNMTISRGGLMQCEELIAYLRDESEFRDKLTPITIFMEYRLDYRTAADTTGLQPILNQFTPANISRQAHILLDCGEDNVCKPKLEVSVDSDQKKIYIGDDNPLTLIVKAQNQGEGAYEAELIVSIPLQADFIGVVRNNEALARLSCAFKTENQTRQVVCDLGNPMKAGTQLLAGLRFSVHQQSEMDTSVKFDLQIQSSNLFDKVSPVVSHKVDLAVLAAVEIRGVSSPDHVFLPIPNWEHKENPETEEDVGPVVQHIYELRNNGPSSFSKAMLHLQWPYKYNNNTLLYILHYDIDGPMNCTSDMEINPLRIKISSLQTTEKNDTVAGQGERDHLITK
# T6 sequence (P06756 891-1048 partner limits assumed): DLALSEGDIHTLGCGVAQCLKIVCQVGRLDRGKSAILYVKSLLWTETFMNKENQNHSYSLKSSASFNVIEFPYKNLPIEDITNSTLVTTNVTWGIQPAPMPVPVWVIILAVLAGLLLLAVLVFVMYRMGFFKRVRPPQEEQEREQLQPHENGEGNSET
# T6 sequence (P05106 27-788): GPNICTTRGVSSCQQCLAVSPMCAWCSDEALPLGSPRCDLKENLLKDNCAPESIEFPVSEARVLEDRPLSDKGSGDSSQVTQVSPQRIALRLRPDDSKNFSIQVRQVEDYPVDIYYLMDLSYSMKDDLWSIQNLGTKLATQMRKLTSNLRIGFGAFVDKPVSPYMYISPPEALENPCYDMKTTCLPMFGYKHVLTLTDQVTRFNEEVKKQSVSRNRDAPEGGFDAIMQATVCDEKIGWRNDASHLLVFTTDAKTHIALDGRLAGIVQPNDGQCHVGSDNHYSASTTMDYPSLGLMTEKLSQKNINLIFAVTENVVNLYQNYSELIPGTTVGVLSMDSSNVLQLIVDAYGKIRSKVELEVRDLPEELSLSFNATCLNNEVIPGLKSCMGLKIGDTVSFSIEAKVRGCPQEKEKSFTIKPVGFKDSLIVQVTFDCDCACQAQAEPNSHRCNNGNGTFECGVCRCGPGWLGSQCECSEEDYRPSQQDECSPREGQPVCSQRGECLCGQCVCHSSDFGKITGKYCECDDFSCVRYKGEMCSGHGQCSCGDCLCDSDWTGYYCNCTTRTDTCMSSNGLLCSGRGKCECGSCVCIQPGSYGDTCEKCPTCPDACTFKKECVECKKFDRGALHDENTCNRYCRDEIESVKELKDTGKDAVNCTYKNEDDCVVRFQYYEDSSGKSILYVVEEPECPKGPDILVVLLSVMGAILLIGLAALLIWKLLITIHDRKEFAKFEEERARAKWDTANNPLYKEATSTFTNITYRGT
# T4 sequence (P08648 42-894 limits assumed): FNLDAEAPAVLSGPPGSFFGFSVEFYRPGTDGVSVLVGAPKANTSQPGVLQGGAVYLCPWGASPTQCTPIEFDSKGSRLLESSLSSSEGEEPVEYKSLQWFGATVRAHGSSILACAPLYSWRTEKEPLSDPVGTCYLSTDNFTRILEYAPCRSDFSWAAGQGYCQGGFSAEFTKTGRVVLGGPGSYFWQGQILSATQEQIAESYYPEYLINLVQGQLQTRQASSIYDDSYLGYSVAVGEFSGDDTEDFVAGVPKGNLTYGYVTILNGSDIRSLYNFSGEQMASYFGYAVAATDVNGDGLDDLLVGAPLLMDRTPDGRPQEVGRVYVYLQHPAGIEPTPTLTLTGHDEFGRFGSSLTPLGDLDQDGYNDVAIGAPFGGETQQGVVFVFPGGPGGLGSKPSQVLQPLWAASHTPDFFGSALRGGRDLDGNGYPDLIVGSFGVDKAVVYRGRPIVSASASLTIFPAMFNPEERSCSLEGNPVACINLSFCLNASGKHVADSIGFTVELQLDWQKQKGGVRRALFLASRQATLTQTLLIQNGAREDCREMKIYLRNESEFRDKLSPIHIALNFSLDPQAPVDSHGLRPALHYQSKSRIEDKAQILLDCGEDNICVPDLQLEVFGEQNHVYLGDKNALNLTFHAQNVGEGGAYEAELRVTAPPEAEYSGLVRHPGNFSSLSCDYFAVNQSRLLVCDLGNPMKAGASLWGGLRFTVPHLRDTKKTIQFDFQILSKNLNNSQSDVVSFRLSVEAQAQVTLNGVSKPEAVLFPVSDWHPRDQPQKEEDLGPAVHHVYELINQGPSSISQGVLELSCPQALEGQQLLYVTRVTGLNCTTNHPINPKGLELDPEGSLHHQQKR
# T4 sequence (P08648 895-1049 partner limits assumed): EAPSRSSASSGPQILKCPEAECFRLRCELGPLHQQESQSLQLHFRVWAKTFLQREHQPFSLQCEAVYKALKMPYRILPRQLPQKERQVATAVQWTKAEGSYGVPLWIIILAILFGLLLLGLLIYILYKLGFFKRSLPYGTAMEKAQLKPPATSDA
# T4 sequence (P05556 21-798): as the sequence (P05556 21-798) above
compound,measurement,setting,value
"flavoridin: medium size disintegrin, SEQ ID NO:10",decrease of ability to inhibit ADP-induced platelet aggregation,αIIbβ3 [1],~40 fold
Echistatin (ECESGPCCRNCKFLKEGTICKRARGDDMDDYCNGKTCDCPRNPHKGPAT) [reference compound],IC50,α4β7,> 10 µM
same,IC50,"α4β1 [2]; Jurkat cells, ligand VCAM-1, read-out: IC50, cell adhesion",> 10 µM
same,IC50,"αIIbβ3, αvβ3, α5β1",0.02 to 0.13 µM
same,IC50,αIIbβ3 [3],0.13 µM
same,IC50,αIIbβ3 [4],0.05 µM
same,inhibition of binding of K562 cells to immobilized fibronectin,α5β1,inhibited binding
same,IC50,α4β1 [5],> 10 µM
same,IC50,α4β1 [6],> 10 µM
same,IC50,αvβ3,0.05 µM
same,"Number of Islets, Infiltration Score ++","[7]; ++ = ⅓ of the islet infiltrated, of 27 (echistatin) or 29 (EC-3) islets, nine weeks i.p.",10
same,"Number of Islets, Infiltration Score +++","[7]; +++ = ½ or more of the islet infiltrated, of 27 (echistatin) or 29 (EC-3) islets, nine weeks i.p.",10
same,Number of Animals without infiltration,"[7]; NOD mice, i.p. three times per week for nine weeks, echistatin 1 μg/mouse, EC-3 3 μg/mouse, 10 animals per group",0
same,effect on lymphocyte infiltration in pancreatic islets of NOD mice (in words),"[7]; echistatin 1 μg/mouse, EC-3 3 μg/mouse",inactive
same,effect on lymphocyte infiltration in pancreatic islets of NOD mice (in words),"[7]; echistatin 1 μg/mouse, EC-3 3 μg/mouse, listed as echistatin",ineffective
same,"Number of Islets, Infiltration Score −","[7]; − = no infiltration, of 27 (echistatin) or 29 (EC-3) islets, nine weeks i.p.",5
same,IC50,"α6β1; K562 (α6+) cells, α6β1, ligand Lm",> 10 µM
same,inhibition of adhesion to laminin of K562 cells transfected with α6,α6β1; at concentration 10 μM,neither echistatin nor EC3 inhibited
same,activity in α4 integrin cell adhesion assays,α4β1 and α4β7 integrins,no detectable activity
CKRAMLA^7GLNDYC,inhibition of Jurkat cell adhesion to immobilized VCAM-1 (in words),α4β1 [2],no significant activity
"eristostatin: short disintegrin, potent inhibitor of αIIbβ3, SEQ ID NO:8 (QEEPCATGPCCRRCKFKRAGKVCRVARGDWNDDYCTGKSCDCPRNPWNG; ends and bridges not checked; cysteine pairing not given here; listed as Eristocophis macmahonii)",effect on human melanoma cell (MV3) metastases,MV3 cells,inhibits human melanoma cell (MV3) metastases
CSCC[C@@H]1NC(=O)[C@H](C)NC(=O)[C@H](CCCNC(=N)N)NC(=O)[C@H](CCCCN)NC(=O)[C@@H](N)CSSC[C@@H](C(=O)O)NC(=O)[C@H](Cc2ccc(O)cc2)NC(=O)[C@H](CC(=O)O)NC(=O)[C@H](CC(N)=O)NC(=O)[C@H](CC(C)C)NC(=O)CNC(=O)[C@H](CC(=O)O)NC(=O)[C@H](CC(C)C)NC1=O (H-CKRAMLDGLNDYC-OH; disulfide 1-13),IC50,α4β1 [2],1000 µM
same,activity relative to MLDG in molar ratio,α4β1 [2]; Jurkat cells / VCAM-1,five fold more active
GRGDSP,effect on adhesion of Jurkat cells to immobilized EC3,Jurkat cells,not effective
phenylacetic acid-Leu-Asp-Phe-d-Pro-amide [CS-1 peptide],effect on accelerated coronary arteriopathy,α4β1 (VLA-4) integrin,reduces accelerated coronary arteriopathy
RGDS [reference compound],inhibition of Jurkat cell adhesion to immobilized VCAM-1,α4β1 [2]; at this concentration (5 mM),inactive
